# Data taken from patent publication US20260152559A1 (Janssen / Centocor, published 2026).
# Positions count from the first letter of the chain named.
# B1: KL2B494 Fab (binding arm listed in Table 39 for hK2/CD3 bispecific antibodies) (bispecific antibody, V domains shown)
# VH: QVQLVESGGGLVQPGGSLRLSCAASGFTFSHYAMSWVRQAPGKGLEWVSTIGGSGGSTYYADSVKGRFTISRDNSKNTLYLQMNSLRAEDTAVYYCAKPHIVMVTALLYDGMDVWGQGTMVTVSS
# VL: SSELTQPPSVSVAPGQTARITCGGNNIGSKSVHWYQQKPGQAPVLVVYDDSDRPSGIPERFSGSNSGNTATLTISRVEAGDEADYYCQVWDSSSDHVVFGGGTKLTVL
# B2: KL2B30 Fab arm of an hK2/CD3 bispecific antibody (Table 39) (bispecific antibody)
# chain 1: QVQLQESGPGLVKPSETLSLTCTVSGGSISSYYWSWIRQPPGKGLEWIGYIYYSGSTNYNPSLKSRVTISVDTSKNQFSLKLSSVTAADTAVYYCAGTTIFGVVTPNFYYGMDVWGQGTTVTVSSASTKGPSVFPLAPSSKSTSGGTAALGCLVKDYFPEPVTVSWNSGALTSGVHTFPAVLQSSGLYSLSSVVTVPSSSLGTQTYICNVNHKPSNTKVDKKVEPKSCDKTHTCPPCPAPEAAGGPSVFLFPPKPKDTLMISRTPEVTCVVVSVSHEDPEVKFNWYVDGVEVHNAKTKPREEQYNSTYRVVSVLTVLHQDWLNGKEYKCKVSNKALPAPIEKTISKAKGQPREPQVYVLPPSREEMTKNQVSLLCLVKGFYPSDIAVEWESNGQPENNYLTWPPVLDSDGSFFLYSKLTVDKSRWQQGNVFSCSVMHEALHNHYTQKSLSLSPG
# chain 2: DIQMTQSPSFLSASVGDRVTITCRASQGISSYLAWYQQKPGKAPKFLIYAASTLQSGVPSRFSGSGSGTEFTLTISSLQPEDFATYYCQQLNSYPLTFGGGTKVEIKRTVAAPSVFIFPPSDEQLKSGTASVVCLLNNFYPREAKVQWKVDNALQSGNSQESVTEQDSKDSTYSLSSTLTLSKADYEKHKVYACEVTHQGLSSPVTKSFNRGEC
# chain 3: DIQMTQSPSSLSASVGDRVTITCRARQSIGTAIHWYQQKPGKAPKLLIKYASESISGVPSRFSGSGSGTDFTLTISSLQPEDFATYYCQQSGSWPYTFGQGTKLEIKGGSEGKSSGSGSESKSTGGSEVQLVESGGGLVKPGGSLRLSCAASGFTFSRYNMNWVRQAPGKGLEWVSSISTSSNYIYYADSVKGRFTFSRDNAKNSLDLQMSGLRAEDTAIYYCTRGWGPFDYWGQGTLVTVSSEPKSSDKTHTCPPCPAPEAAGGPSVFLFPPKPKDTLMISRTPEVTCVVVSVSHEDPEVKFNWYVDGVEVHNAKTKPREEQYNSTYRVVSVLTVLHQDWLNGKEYKCKVSNKALPAPIEKTISKAKGQPREPQVYVYPPSREEMTKNQVSLTCLVKGFYPSDIAVEWESNGQPENNYKTTPPVLDSDGSFALVSKLTVDKSRWQQGNVFSCSVMHEALHNHYTQKSLSLSPG
# B3: KL2B53 Fab arm of an hK2/CD3 bispecific antibody (Table 39) (bispecific antibody)
# chain 1: EVQLVESGGGVVQPGRSLRLSCVASGFTFSSYDIHWVRQAPGKGLEWVAIISYDGSKKDYTDSVKGRFTISRDNSKNTLYLQMDSLRVEDSAVYSCARESGWSHYYYYGMDVWGQGTMVTVSSASTKGPSVFPLAPSSKSTSGGTAALGCLVKDYFPEPVTVSWNSGALTSGVHTFPAVLQSSGLYSLSSVVTVPSSSLGTQTYICNVNHKPSNTKVDKKVEPKSCDKTHTCPPCPAPEAAGGPSVFLFPPKPKDTLMISRTPEVTCVVVSVSHEDPEVKFNWYVDGVEVHNAKTKPREEQYNSTYRVVSVLTVLHQDWLNGKEYKCKVSNKALPAPIEKTISKAKGQPREPQVYVLPPSREEMTKNQVSLLCLVKGFYPSDIAVEWESNGQPENNYLTWPPVLDSDGSFFLYSKLTVDKSRWQQGNVFSCSVMHEALHNHYTQKSLSLSPG
# chain 2: DIVMTQSPSSLSASVGDRVTITCRASQDISNYLAWYQQKPGKVPKFLIYAASTLHSGVPSRFSGSGSGTDFTLTISSLQPEDVATYYCQKYNSAPYTFGQGTRLEIKRTVAAPSVFIFPPSDEQLKSGTASVVCLLNNFYPREAKVQWKVDNALQSGNSQESVTEQDSKDSTYSLSSTLTLSKADYEKHKVYACEVTHQGLSSPVTKSFNRGEC
# chain 3: B2 chain 3
# B4: KL2B467 Fab (binding arm listed in Table 39 for hK2/CD3 bispecific antibodies) (bispecific antibody, V domains shown)
# VH: QVQLVESGGGVVQPGRSLRLSCAASGFTFSYYGMHWVRQAPGKGLEWVAFISYDGSNKYYADSVKGRFTISRDNSKNTLYLQMNSLRAEDTAVYYCAHLPYSGSYWAFDYWGQGTQVTVSS
# VL: QSVLTQPPSVSVAPGQTASITCGGDNIGSKSVHWYQQKPGQAPVLVVYDNSDRPSGIPERFSGSNSGTTATLTISRVEAGDEADYYCQVWDSSSDHPVVFGGGTKVTV
# B5: CAR17 (KL2B413_HL) (other)
# chain: EVQLVESGGGLVQPGGSLRLSCAASGFTFSSYWMTWVRQAPGKGLEWVANIKQDGSERYYVDSVKGRFTISRDNAKNSLYLQMNSLRAEDTAVYYCARDQNYDILTGHYGMDVWGQGTTVTVSSGGSEGKSSGSGSESKSTGGSEIVLTQSPSFLSASVGDRVTITCRASQGISSYLSWYQQKPGKAPKLLIYATSTLQSGVPSRFSGSGSGTEFTLTISSLQPEDFATYYCQQLNSYPRTFGQGTKVEIKTSTPAPRPPTPAPTIASQPLSLRPEACRPAAGGAVHTRGLDFACDIYIWAPLAGTCGVLLLSLVITLYCKRGRKKLLYIFKQPFMRPVQTTQEEDGCSCRFPEEEEGGCELRVKFSRSADAPAYKQGQNQLYNELNLGRREEYDVLDKRRGRDPEMGGKPRRKNPQEGLYNELQKDKMAEAYSEIGMKGERRRGKGHDGLYQGLSTATKDTYDALHMQALPPR
# B6: CAR15 (LH_LCHumanized_HCHumanized_20AA) (other)
# chain: DIVLTQSPDSLAVSLGERATINCKASESVEYFGTSLMHWYQQKPGQPPKLLIYAASNRESGVPDRFSGSGSGTDFTLTISSLQAEDVAVYYCQQTRKVPYTFGQGTKLEIKGGSEGKSSGSGSESKSTGGSQVQLQESGPGLVKPSDTLSLTCAVSGNSITSDYAWNWIRQPPGKGLEWIGYISYSGSTTYNPSLKSRVTMSRDTSKNQFSLKLSSVTAVDTAVYYCATGYYYGSGFWGQGTLVTVSSTSTPAPRPPTPAPTIASQPLSLRPEACRPAAGGAVHTRGLDFACDIYIWAPLAGTCGVLLLSLVITLYCKRGRKKLLYIFKQPFMRPVQTTQEEDGCSCRFPEEEEGGCELRVKFSRSADAPAYKQGQNQLYNELNLGRREEYDVLDKRRGRDPEMGGKPRRKNPQEGLYNELQKDKMAEAYSEIGMKGERRRGKGHDGLYQGLSTATKDTYDALHMQALPPR
# notes: Chimeric antigen receptor with the hu11B6 scFv in VL-linker-VH order, on JNL cells or primary human T cells; also called 11B6_LH; parental 11B6 CAR LH
# B7: CAR6 (LH_LCHumanized_HCF3_20AA) (other)
# chain: B6 chain with P172F, M201I, A219P
# notes: Chimeric antigen receptor on JNL cells or primary human T cells; also called hK2 CAR; pDR000083440
# B8: CAR7 (LH_LCHumanized_HCG5_20AA) (other)
# chain: B6 chain with P172F, I180M, M201I, A219P
# notes: Chimeric antigen receptor on JNL cells or primary human T cells; also called hK2 CAR; pDR000083441
# B9: CAR13 (HL_HCHumanized_LCHumanized_20AA) (other)
# chain: QVQLQESGPGLVKPSDTLSLTCAVSGNSITSDYAWNWIRQPPGKGLEWIGYISYSGSTTYNPSLKSRVTMSRDTSKNQFSLKLSSVTAVDTAVYYCATGYYYGSGFWGQGTLVTVSSGGSEGKSSGSGSESKSTGGSDIVLTQSPDSLAVSLGERATINCKASESVEYFGTSLMHWYQQKPGQPPKLLIYAASNRESGVPDRFSGSGSGTDFTLTISSLQAEDVAVYYCQQTRKVPYTFGQGTKLEIKTSTPAPRPPTPAPTIASQPLSLRPEACRPAAGGAVHTRGLDFACDIYIWAPLAGTCGVLLLSLVITLYCKRGRKKLLYIFKQPFMRPVQTTQEEDGCSCRFPEEEEGGCELRVKFSRSADAPAYKQGQNQLYNELNLGRREEYDVLDKRRGRDPEMGGKPRRKNPQEGLYNELQKDKMAEAYSEIGMKGERRRGKGHDGLYQGLSTATKDTYDALHMQALPPR
# notes: Chimeric antigen receptor with the hu11B6 scFv in VH-linker-VL order, on JNL cells or primary human T cells; also called 11B6_HL; parental 11B6 CAR HL
# B10: CAR1 (HL_HCG5_LCD6_20AA) (other)
# chain: B9 chain with P41F, I49M, M70I, A88P, S217Q, L219V, A225S, Y228F
# notes: Chimeric antigen receptor (scFv, CD8a hinge and transmembrane region, 4-1BB and CD3-zeta domains) on JNL cells or primary human T cells; also called hK2 CAR; pDR000083431
# B11: CAR2 (HL_HCG5_LCHumanized_20AA) (other)
# chain: B9 chain with P41F, I49M, M70I, A88P
# notes: Chimeric antigen receptor on JNL cells or primary human T cells; also called hK2 CAR; pDR000083432
# B12: CAR8 (LH_LCB7_HCF3_20AA) (other)
# chain: B6 chain with L82V, P172F, M201I, A219P
# notes: Chimeric antigen receptor on JNL cells or primary human T cells; also called hK2 CAR; pDR000083443
# B13: CAR9 (LH_LCB7_HCG5_20AA) (other)
# chain: B6 chain with L82V, P172F, I180M, M201I, A219P
# notes: Chimeric antigen receptor on JNL cells or primary human T cells; also called hK2 CAR; pDR000083444
# B14: CAR4 (HL_HCG5_LCB7_20AA) (other)
# chain: B9 chain with P41F, I49M, M70I, A88P, L219V
# notes: Chimeric antigen receptor on JNL cells or primary human T cells; also called hK2 CAR; pDR000083437
# B15: CAR3 (HL_HCF3_LCB7_20AA) (other)
# chain: B9 chain with P41F, M70I, A88P, L219V
# notes: Chimeric antigen receptor on JNL cells or primary human T cells; also called hK2 CAR; pDR000083436
# Biological target: T1, kallikrein related peptidase 2 (hK2), soluble (human, UniProt P20151 19-261, biotin label in the CAR staining assays (site not stated))
# T1 construct: also called KLK2; human KLK2 protein
# Assay: SPR; bispecific antibody captured on anti-Fc sensor chip, soluble hK2 injected; 1:1 Langmuir fit
# T1 sequence (P20151 19-261): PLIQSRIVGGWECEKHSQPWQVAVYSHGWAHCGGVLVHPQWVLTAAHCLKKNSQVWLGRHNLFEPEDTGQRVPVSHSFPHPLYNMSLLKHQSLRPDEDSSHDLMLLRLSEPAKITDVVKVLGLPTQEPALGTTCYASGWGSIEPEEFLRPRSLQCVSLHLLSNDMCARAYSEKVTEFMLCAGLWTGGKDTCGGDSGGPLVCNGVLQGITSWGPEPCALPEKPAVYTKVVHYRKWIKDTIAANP
row,Kd,Binder
1,60 pM,B1
2,2000 pM,B2
3,100 pM,B3
4,90 pM,B4

# Biological target: hK2 on target cells (VCaP, LNCaP/hK2 and other hK2 positive tumor cells) (human, UniProt P20151 19-261)
# Assay: cell-based or functional assay
# Chain of hK2 on target cells (VCaP, LNCaP/hK2 and other hK2 positive tumor cells) (P20151 19-261): as above
row,Binder,"tumor cell growth inhibition (TGI) of VCaP cells, IncuCyte killing assay, 96 hours, E:T 1:1 or 0.5:1"
1,B5,~100%

# Biological target: T1, kallikrein related peptidase 2 (hK2), …
# Assay: flow cytometry, primary human T cells transduced with the CAR lentivirus (MOI 3), biotinylated hK2 (1 ug/ml) then streptavidin-PE, 14 days after transduction; UTD gate 0.086
row,% of cells in the hK2CAR+ CD3+ gate,Binder
1,22.6%,B6
2,27.8%,B7
3,35%,B8
4,6.12%,B9
5,20%,B10
6,23.6%,B11

# Biological target: T1, kallikrein related peptidase 2 (hK2), …
# Assay: flow cytometry, primary human T cells transduced with the CAR lentivirus (MOI 3), biotinylated hK2 (1 ug/ml) then streptavidin-PE, 14 days after transduction; UTD gate 0.086 [contd]
row,% of cells in the hK2CAR+ CD3+ gate,Binder
1,21.5%,B12
2,30.6%,B13
3,42.7%,B14
4,29.4%,B15
